Data published in the supplement of paper PMC10567573.
± gives the standard deviation.

Experiment: protein stability index of a GFP-peptide fusion (GPS, HEK-293T) (PSI 1-6); higher = more stable
Conditions: c terminus: a fixed tail appended
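Further: 24-mer peptide tiles fused after GFP, lentivirally expressed, FACS-sorted into six equal bins by GFP/DsRed ratio, decoded by Illumina sequencing, PSI is the read-weighted mean bin number.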

Sequence	protein stability index (treatment: DMSO)	protein stability index (treatment: MLN4924 1 uM, 8 h)
ASKDPREVREARDHKEPKEEINKN [EHMT1]	5.5 ± 0.2	5.66 ± 0.29
IFSIVFVFFVCFVPYHIARIPYTK [P2RY14]	3.1 ± 0.21	3 ± 0.49
EGHHHDVVACDFSPDGALLATASY [WSB1]	3.9 ± 0.23	4.03 ± 0.18
SEKGKPYVDIQGLTASTMEILLDF [KLHL12]	2.06 ± 0.5	2.25 ± 0.6
KQNKTPLDKSTTGVSEILLKTQMK [FEM1B]	4.36 ± 0.15	4.2 ± 0.2
RVAAAAGSGPSPPGSPGHDRERQP [PI4K2A]	5.31 ± 0.5	5.42 ± 0.27
LDMEKRRCRQSLEDSESLRIKEVE [LRRC45]	4.79 ± 0.2	4.67 ± 0.1
DLSDLLQVDSLRPASFPTWGCDLG [BRF1]	2.53 ± 0.28	2.73 ± 0.31
LSNLVGKPSENHPLHNSGLLSLDP [MED27]	3.87 ± 0.28	4.13 ± 0.26
YYIDDVFHALVREIRRKEKEAVLA [RIT1]	2.27 ± 0.32	1.94 ± 0.53
YDILPLSPVSRNRLAQVKRKILVL [CTDNEP1]	2.11 ± 0.36	2.35 ± 0.22
NRPIETYQVHDYLRSKLCSLYEND [PPP2R2B]	2.97 ± 0.084	3.22 ± 0.16
LASLGASEEAVQKLATCYFFTVEF [TPH1]	2.98 ± 0.52	2.73 ± 0.66
HFLENLDKSRKGELLKKSDLQKDF [PRIM1]	3.52 ± 0.21	3.95 ± 0.37
LARVPKLDLKRQYDRVAQLDQLLH [CHGB]	2.15 ± 0.063	2.48 ± 0.26
KERKKREERERKRRKEEEVQQQKL [FAF2]	5.09 ± 0.46	4.91 ± 0.31
VPGHRSERAIRTQPKQLIVDDLKG [SPRY1]	4.25 ± 0.34	4.13 ± 0.47
GGEFQCGLEAASVYSDHTNTNNLT [RNF180]	2.42 ± 0.36	2.42 ± 0.29
MYKLSSEQFHEAASKMESTIKPRR [CHCHD6]	3.72 ± 0.53	4.07 ± 0.64
AEGARPLRENVPRVIMIVTDGRPQ [MATN2]	2.83 ± 0.61	3.56 ± 0.35
LATASYDTRVYIWDPHNGDILMEF [WSB1]	2.85 ± 0.12	2.86 ± 0.26
MGSASPGLSSVSPSHLLLPPDTVS [SPDEF]	4.28 ± 0.27	4.2 ± 0.23

Sequence	protein stability index (treatment: DMSO)	protein stability index (treatment: MLN4924 1 uM, 8 h)
MTVKPAKAASLARNLAKRRRTYLG [RSPH3]	3.16 ± 0.3	3.6 ± 0.3
SDLNTNNLLFKPPVESHIQKNKKI [KMT2E]	4.31 ± 0.16	4.45 ± 0.39
DIARMLYKDTCHELDELQLCKNCF [ZMYND11]	2.27 ± 0.14	2.52 ± 0.49
QKRQQLSEDTLTIHGLPTEGYQAL [C22orf31]	3.91 ± 0.12	3.92 ± 0.096
ELNKQVVSSSEQLQSYQAEIIELR [KRT33B]	3.76 ± 0.3	3.99 ± 0.34
FFLKHPDKDVRLLVACCLADIFRI [PDS5B]	2.95 ± 0.81	2.75 ± 0.17
PGDMLLQVNEINFENMSNDDAVRV [DVL3]	4.4 ± 0.35	4.37 ± 0.21
QQQHVSCQVFPERLAQGNPQQGFF [ATP23]	3.5 ± 0.34	3.28 ± 0.39
ATPEQGLSAFYLSYFDMLYPEDSS [SPDEF]	2.75 ± 0.48	2.8 ± 0.41
KKAIKDLGISPSTCSFNPGVIVAN [GLT8D2]	2.95 ± 0.11	2.87 ± 0.43
AWPFYKPVDAEALELHDYHDIIKH [BRD3]	3.04 ± 0.17	3.24 ± 0.35
TLQNGRRHIHHLGNQLQLNQHCLD [BRF1]	3.1 ± 0.034	3.31 ± 0.097
KFYPPDPAQLSEDITRYYLCLQLR [EPB41L3]	2.49 ± 0.048	2.48 ± 0.87
RELGVWRSLLRLRATRAGAAEEPG [C2CD2L]	3.15 ± 0.24	3.27 ± 0.33
CTWSIFQSIEYAGQQDQVKLHDFF [PPEF2]	2.54 ± 0.62	2.37 ± 0.46
LAIQARKRRPKREKHPKKPEPQQK [SRPK2]	4.32 ± 0.2	4.59 ± 0.25
KKLKKDDKKKELQELNELFKPVVA [ZC3H15]	4.18 ± 0.48	4.15 ± 0.34
LQFEAEMARLQEEHGDQLLSIRCQ [MTUS2]	3.99 ± 0.12	3.92 ± 0.51
TAAASRERQEEQSAAIHISETLEQ [EPB41L3]	5.5 ± 0.061	5.4 ± 0.52
ALQNKDTYEPFCKVPVITSSKEEQ [KCTD10]	4.4 ± 0.14	4.5 ± 0.16
TCISELRMLQREGCFRSQGASLRL [M1AP]	2 ± 0.29	2.19 ± 0.37
GGLATGIAGGLAGMGGIQNEKETM [KRT18]	4.95 ± 0.33	4.58 ± 0.39
